Results published in the supplement of paper PMC7125110.
± gives the standard error. For part of these data: Fewer inactive variants are shown than the library holds.

B1: glmS ribozyme (parent)
chain: AUAAAAGCGCCAGAACUACAGAAAUGUAGUUGACGAGGAGGAGGUUUAUCGAAUUUUCGGCGGAUGCCUCCAAA

Tests used:
Conditions in all cases: with glucosamine-6-phosphate
glucosamine-6-phosphate [1] = variants of: B1; assay: kcat; higher = faster cleavage; RNA array
Summary of the method: (§1)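 Barcoded ribozyme variants, transcribed in situ by E. coli RNA polymerase on sequenced MiSeq chips, were followed via a hybridised Cy3 probe at 37 °C. Glucosamine-6-phosphate ranged from 40 μM to 10 mM in HEPES/KCl/Mg(OAc)2 buffer. kobs came from decay fits to per-tile medians, and kcat and KM from weighted Michaelis–Menten fits.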

glucosamine-6-phosphate [2] = variants of: B1; assay: self-cleavage kobs at 640 uM GlcN6P; higher = faster cleavage; RNA array
Summary of the method: as §1

glucosamine-6-phosphate [3] = variants of: B1; assay: KM; higher = weaker cofactor use; RNA array
Summary of the method: as §1

glucosamine-6-phosphate [4] = variants of: B1; assay: self-cleavage kobs at 2500 uM GlcN6P; higher = faster cleavage; RNA array
Summary of the method: as §1

glucosamine-6-phosphate [5] = variants of: B1; assay: self-cleavage kobs at 10000 uM GlcN6P; higher = faster cleavage; RNA array
Summary of the method: as §1

glucosamine-6-phosphate [6] = variants of: B1; assay: self-cleavage kobs at 160 uM GlcN6P; higher = faster cleavage; RNA array
Summary of the method: as §1

glucosamine-6-phosphate [7] = variants of: B1; assay: self-cleavage kobs at 40 uM GlcN6P; higher = faster cleavage; RNA array
Summary of the method: as §1

| Variant | kcat (glucosamine-6-phosphate [1]) | self-cleavage kobs at 640 uM GlcN6P (glucosamine-6-phosphate [2]) | KM (glucosamine-6-phosphate [3]) | self-cleavage kobs at 2500 uM GlcN6P (glucosamine-6-phosphate [4]) | self-cleavage kobs at 10000 uM GlcN6P (glucosamine-6-phosphate [5]) | self-cleavage kobs at 160 uM GlcN6P (glucosamine-6-phosphate [6]) | self-cleavage kobs at 40 uM GlcN6P (glucosamine-6-phosphate [7]) |
| --- | --- | --- | --- | --- | --- | --- | --- |
| AUAAAAGCGACAGAACUACAGAAAUGUAGUUGACGAGGAGGAGGUUUAUCGAAUUUUUGGCGGAUGCCUCCAAA [C10A C58U] | < 1e-05 s⁻¹ | < 1e-05 s⁻¹ |  |  |  |  |  |
| AUAAAAGCGCCAGAACUACAGAAAUGUAGUUGACGAGGAGGAGGUUUAUCGAAUUUUCGGCGGAUCCCUCGAAA [G66C C71G] | 4.2e-05 ± 2.4e-06 s⁻¹ | 4e-05 ± 1.4e-05 s⁻¹ | 108 ± 50 µM | 4.07e-05 ± 1.1e-05 s⁻¹ | 3.81e-05 ± 1.5e-05 s⁻¹ |  |  |
| AUAAAAGCGCCAGAACUACAGAAAUGUAGUUGACGAGGAGGAGGUUUAUCGAAUUUGCGGCGGAUGCCCCCAAA [U57G U69C] | 1.77e-05 ± 7.2e-06 s⁻¹ |  |  |  |  |  |  |
| AUAAAAGCGCCAGAACUACAGAAAUGUAGUUGACGAGGAGGAGGUUAAUCGAAUUUUCGGCGGACGCCUCCAAA [U47A U65C] | 0.000833 ± 0.00017 s⁻¹ | 0.000158 ± 3.6e-05 s⁻¹ | 2410 ± 980 µM | 0.000533 ± 0.00012 s⁻¹ | 0.000645 ± 0.00011 s⁻¹ |  |  |
| AUAAAAGCGCCAGAACUACAGAAAUGUAGUUGACGAUGAGGAGGAUUAUCGAAUUUUCGGCGGAUGCCUCCAAA [G37U U45A] | < 1e-05 s⁻¹ |  |  |  |  | < 1e-05 s⁻¹ |  |
| AUAAAAGCGCCAGAAUUACAGAAAUGUAGUUGACGAGGAGGAGGUUUAUCGAAUUUUCGGCGGUUGCCUCCAAA [C16U A64U] | 9.47e-05 ± 1.3e-05 s⁻¹ |  |  | 7.64e-05 ± 1.2e-05 s⁻¹ | 8e-05 ± 6.6e-06 s⁻¹ |  |  |
| AUAAAAGCGCCAGAACUACAGAAAUGUAGUUGACGAGGGGUAGGUUUAUCGAAUUUUCGGCGGAUGCCUCCAAA [A39G G41U] | 0.0014 ± 8.3e-05 s⁻¹ | 0.000467 ± 8.1e-05 s⁻¹ | 1410 ± 140 µM | 0.000965 ± 0.00021 s⁻¹ | 0.00119 ± 0.00016 s⁻¹ | 0.000143 ± 2.9e-05 s⁻¹ | 3.41e-05 ± 9.8e-06 s⁻¹ |
| AUAAAAGCGACAGAACUACAGAAAUGUAGUUGACGAGGAGGAGGUUAAUCGAAUUUACGGCGGAUGCCUUCAAA [C10A U47A U57A C70U] | 3.44e-05 ± 1.3e-05 s⁻¹ |  |  |  |  |  |  |
| AUAAAAGCGCCAGUACUACAGAAAUGUAGUUGACGAGGAGGAGGUUUAUCGAAUUUUCGGCGGAGGCCUCCAAA [A14U U65G] | 0.00172 ± 0.00014 s⁻¹ | 0.000431 ± 4.8e-05 s⁻¹ | 2120 ± 250 µM | 0.000875 ± 0.00012 s⁻¹ | 0.00144 ± 0.00018 s⁻¹ | 0.000118 ± 1.7e-05 s⁻¹ | 2.77e-05 ± 8e-06 s⁻¹ |
| AUAAAGGCGCCAGAACUACAGAAAUGUAGUUGACGAGGUGGAGGUUUAUCGAAUUUUCGGCGGAUGCCUCCAAA [A6G A39U] | 0.000276 ± 7.5e-06 s⁻¹ | 8.14e-05 ± 1.2e-05 s⁻¹ | 1490 ± 84 µM | 0.000176 ± 2.3e-05 s⁻¹ | 0.000239 ± 3.2e-05 s⁻¹ | 2.95e-05 ± 1.1e-05 s⁻¹ |  |
| AUAAAAGCGCCAGAACUACAGAAAUGUAGUUGACGAGGUGGAGGUUUAUCGAAUAUUCGGCGGAUGCCUCCAAA [A39U U55A] | 0.0539 ± 0.0098 s⁻¹ | 0.00564 ± 0.001 s⁻¹ | 5710 ± 1200 µM | 0.0142 ± 0.0033 s⁻¹ | 0.0376 ± 0.0091 s⁻¹ | 0.00146 ± 0.00024 s⁻¹ | 0.000396 ± 9.4e-05 s⁻¹ |
| AUAAAAGCGCCAGAACUACAGAAAUGUAGUCGACGAGGAGGAGGUGUAUCGAAUUUUCGGCGGAUGCCUCCAAA [U31C U46G] | 0.000788 ± 0.00029 s⁻¹ | 0.000198 ± 3.6e-05 s⁻¹ |  | 0.000722 ± 0.00013 s⁻¹ | 0.000568 ± 7.8e-05 s⁻¹ |  |  |
| AUAAAAGCGCCAGACCUACAGAAAUGUAGUUUACGAGGAGGAGGUUUAUCGAAUUUUCGGCGGAUGCCUCCAAA [A15C G32U] | 0.00121 ± 6.6e-05 s⁻¹ | 0.000107 ± 1.4e-05 s⁻¹ | 6690 ± 540 µM | 0.000321 ± 4.8e-05 s⁻¹ | 0.000731 ± 7.6e-05 s⁻¹ |  |  |
| AUAAAAGCGCCAGAACUACAGAAAUGUAGUUGACGAGGAGGAGGUUUAUCGAAUUGUCGGCGGCUGCCUCCAAA [U56G A64C] | 7.21e-05 ± 4.9e-06 s⁻¹ | 2.44e-05 ± 1.1e-05 s⁻¹ | 1500 ± 420 µM | 3.92e-05 ± 1.5e-05 s⁻¹ | 6.35e-05 ± 8.6e-06 s⁻¹ | < 1e-05 s⁻¹ |  |
| AUAAAGGCGCCAGAACUACAGAAAUGUAGUUGACGAGGAGGAGGUUUAUCGAAUUUUCGGCGGAAGCCUCCAAA [A6G U65A] | 7.49e-05 ± 1.1e-05 s⁻¹ |  |  | 4.41e-05 ± 1.2e-05 s⁻¹ | 6.05e-05 ± 9.8e-06 s⁻¹ |  |  |
| AUAAAAGCGCCAGAACUACAGAAAUGUAGUUGACGAGGAGGAGGUUUAUGGAAUUUUCGGCGGAUACCUCCAAA [C50G G66A] | 4.08e-05 ± 1e-05 s⁻¹ |  |  |  |  | 5.66e-05 ± 2.2e-05 s⁻¹ |  |
| AUAAAAGCGCCAGUACUACAGAAAUGUAGUUGACGAGGAGGAGGUUUAUCGAAUUUUCGGCGGAUGCCGCCAAA [A14U U69G] | 3.85e-05 ± 7.5e-06 s⁻¹ |  |  | 3.53e-05 ± 6.6e-06 s⁻¹ | 3.9e-05 ± 8.1e-06 s⁻¹ | 4.67e-05 ± 1.3e-05 s⁻¹ |  |
| AUAAAAGCGCCAGAACUACAGAAAUGUAGUUGACGAGGAGGAGGUUUAUCGAUUUAUCGGCGGAUGCCUCCAAA [A53U U56A] | 0.00699 ± 0.0012 s⁻¹ | 0.00169 ± 0.0002 s⁻¹ | 1820 ± 450 µM | 0.00313 ± 0.00052 s⁻¹ | 0.00667 ± 0.00065 s⁻¹ | 0.000573 ± 8e-05 s⁻¹ | 0.000172 ± 2.1e-05 s⁻¹ |
| AUAAAAGCGCCAGAACUACAGAAAUGUAGUUGACGAGGAGGAGGUUUAUCGAAUUUUCGGCGAAUGCAUCCAAA [G63A C68A] | 2.09e-05 ± 4.7e-06 s⁻¹ |  |  |  |  |  |  |
